{"source": "paper doi:10.1101/2023.10.08.561411", "about": "“Semi-synthetic nanobody-ligand conjugates exhibit tunable signaling properties and enhanced transcriptional outputs at neurokinin receptor-1” (bioRxiv, 2023)", "molecules": {"B1": {"name": "NbGFP, biotin-labeled (negative control nanobody that targets GFP) (VHH)", "VHH": "QVQLQESGGALVQPGGSLRLSCAASGFPVNRYSMRWYRQAPGKEREWVAGMSSAGDRSSYEDSVKGRFTISRDDARNTVYLQMNSLKPEDTAVYYCNVNVGFEYWGQGTQVTVSS", "notes": "nanobody NbGFP against GFP; sortase A recognition motif at the C-terminus (LPETGG in the methods); if by sortagging, the His tag would be lost; source: E. coli BL21(DE3), purified (nickel-NTA, size exclusion chromatography)"}, "B2": {"name": "G3SP_(6–11), SP_(6–11) with an N-terminal triglycine extension (peptide)", "peptide": "GGGQFFGLM-NH2"}, "B3": {"name": "Nb_(alfa), biotin-labeled (VHH)", "VHH": "EVQLQESGGGLVQPGGSLRLSCTASGVTISALNAMAMGWYRQAPGERRVMVAAVSERGNAMYRESVQGRFTVTRDFTNKMVSLQMDNLKPEDTAVYYCHVLEDRVDSFHDYWGQGTQVTVSS", "notes": "sortase A recognition motif at the C-terminus (LPETGG in the methods); if by sortagging, the His tag would be lost; source: E. coli BL21(DE3), purified (nickel-NTA, size exclusion chromatography)"}, "B4": {"name": "Nb6e, biotin-labeled (VHH)", "VHH": "QVQLQESGGGLVQPGGSLRLSCAASGFVFENSAMAWYRQAPGKERELIAVIGTTFIKLAESVKGRFTISRDNAKSTVYLQMNNLKPEDTAVYYCSKSGAYWGQGTQVTVSS", "notes": "as for B3"}, "B5": {"name": "NbBC2, biotin-labeled (VHH)", "VHH": "QVQLVESGGGLVQPGGSLTLSCTASGFTLDHYDIGWFRQAPGKEREGVSCINNSDDDTYYADSVKGRFTIFMNNAKDTVYLQMNSLKPEDTAIYYCAEARGCKRGRYEYDFWGQGTQVTVSS", "notes": "as for B3"}}, "key": {"[1]": {"target": "epitope-tagged neurokinin-1 receptor (NK1R) with three epitope tags (alfa, 6e, BC2) inserted into the extracellular N-terminus (UniProt P25103)"}, "[2]": {"target": "epitope-tagged neurokinin-1 receptor (NK1R) with three epitope tags (alfa, 6e, BC2) inserted into the extracellular N-terminus (UniProt P25103)", "remark": "listed apart in the source"}, "[3]": {"target": "epitope-tagged neurokinin-1 receptor (NK1R) with three epitope tags (alfa, 6e, BC2) inserted into the extracellular N-terminus (UniProt P25103)", "remark": "listed apart in the source"}, "[4]": {"target": "epitope-tagged neurokinin-1 receptor (NK1R) with three epitope tags (alfa, 6e, BC2) inserted into the extracellular N-terminus (UniProt P25103)", "remark": "listed apart in the source"}, "[5]": {"target": "T1, neurokinin-1 receptor wild-type, lacking epitope tags (Homo sapiens, UniProt P25103)", "T1 construct": "also called NK1R WT; NK1R wild-type; source: HEK293, stably transfected clonal line, on live cells", "T1 sequence (P25103 whole entry)": "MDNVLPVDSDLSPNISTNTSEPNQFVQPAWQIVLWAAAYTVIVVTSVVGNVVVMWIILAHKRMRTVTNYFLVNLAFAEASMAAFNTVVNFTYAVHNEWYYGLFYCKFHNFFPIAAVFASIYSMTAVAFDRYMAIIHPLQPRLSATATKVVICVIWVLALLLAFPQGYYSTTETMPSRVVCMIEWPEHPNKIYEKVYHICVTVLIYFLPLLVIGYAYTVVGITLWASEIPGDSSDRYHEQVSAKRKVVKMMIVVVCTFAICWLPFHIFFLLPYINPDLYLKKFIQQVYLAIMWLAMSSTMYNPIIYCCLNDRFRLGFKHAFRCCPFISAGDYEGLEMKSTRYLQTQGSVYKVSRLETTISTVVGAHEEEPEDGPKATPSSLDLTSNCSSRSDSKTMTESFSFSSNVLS", "test": "flow cytometry on cells; live HEK293 cells expressing the receptor, on ice 20 min in PBS with 2% BSA with biotin-functionalized nanobodies (0.1 pM – 1 μM); detected with APC-streptavidin; median fluorescence intensity", "settings": "one partner purified"}}, "note": "Ends that are not written are not given here."}
{"molecule": "NbGFP-NKA conjugate (negative control)", "values": [{"measurement": "Gq activation (TRUPATH BRET), full efficacy; reduction in potency (EC50) relative to the comparator peptide", "setting": "[1]", "value": "< 6", "unit": "fold"}]}
{"molecule": "NbGFP-SP_(6–11) conjugate (negative control)", "values": [{"measurement": "Gq activation (TRUPATH BRET), full efficacy; reduction in potency (EC50) relative to the comparator peptide G3SP (6–11)", "setting": "[1]", "value": "> 60", "unit": "fold"}, {"measurement": "Gq activation (TRUPATH BRET); difference in EC50 relative to SP (6–11)", "setting": "[1]", "value": "< 4", "unit": "fold"}]}
{"molecule": "Nb_(alfa)-NKA conjugate", "values": [{"measurement": "Gq activation (TRUPATH BRET), full efficacy; reduction in potency (EC50) relative to the comparator peptide", "setting": "[1]", "value": "< 6", "unit": "fold"}, {"measurement": "Gs-mediated transcription (luciferase reporter, 35 nM, 17 hours), fold against NKA", "setting": "[2]", "value": "> 5", "unit": "fold"}, {"measurement": "Gq-mediated transcriptional output (luciferase reporter, 35 nM, 17 hours), fold against G3NKA", "setting": "[3]", "value": "> 2", "unit": "fold"}]}
{"molecule": "Nb_(alfa)-SP_(6–11) conjugate", "values": [{"measurement": "Gq activation (TRUPATH BRET), full efficacy; reduction in potency (EC50) relative to the comparator peptide G3SP (6–11)", "setting": "[1]", "value": "> 60", "unit": "fold"}, {"measurement": "Gq activation (TRUPATH BRET); difference in EC50 relative to SP (6–11)", "setting": "[1]", "value": "< 4", "unit": "fold"}]}
{"molecule": "SP_(6–11), truncated version of Substance P (peptide)", "values": [{"measurement": "signaling through the Gq pathway (TRUPATH BRET), EC50", "setting": "[4]", "value": 27.5, "unit": "nM"}]}
{"molecule": "B1", "values": [{"measurement": "binding result", "setting": "[5]", "value": "no binding (tested: 1 μM)"}]}
{"molecule": "B2", "values": [{"measurement": "signaling through the Gq pathway (TRUPATH BRET), EC50", "setting": "[4]", "value": 0.3, "unit": "nM"}]}
{"molecule": "B3", "values": [{"measurement": "binding result", "setting": "[5]", "value": "no binding (tested: 1 μM)"}]}
{"molecule": "B4", "values": [{"measurement": "binding result", "setting": "[5]", "value": "no binding (tested: 1 μM)"}]}
{"molecule": "B5", "values": [{"measurement": "binding result", "setting": "[5]", "value": "no binding (tested: 1 μM)"}]}
